Source: patent US20230263900A1, “DENDRIMER-DRUG CONJUGATE” (priority 2020, published 2023)

Assay: Pharmacokinetic studies of RHa-5 and RHa-15, single IV or SC administration, compared with RDV
Format: in vivo, animals (mammals)
Details: for C0, plasma GS-441524 / C0, plasma Remdesivir / F AUC(0-inf), plasma GS-441524 / F AUC(0-inf), plasma Remdesivir / F AUC(0-last), plasma GS-441524 / F AUC(0-last), plasma Remdesivir / Clast, plasma GS-441524 / Clast, plasma Remdesivir / t1/2last, plasma GS-441524 / t1/2last, plasma Remdesivir / tlast, plasma GS-441524 / tlast, plasma Remdesivir: 6.17 mg/kg Remdesivir equivalent; for F AUC(0-inf), plasma GS-441524 / F AUC(0-inf), plasma Remdesivir / F AUC(0-last), plasma GS-441524 / F AUC(0-last), plasma Remdesivir: relative to RDV IV
Protocol: Studies were undertaken to investigate the pharmacokinetic (PK) profile of two Remdesivir dendrimer conjugates following single intravenous (IV) or subcutaneous (SC) administration, and to compare them with that of Remdesivir (RDV).
The study consisted of two phases (PK Phase 1 and PK Phase 2) in a total of 6 animals (age 36-48 months) each part separated by a washout period: • PK Phase 1: Four animals (mammals) were studied. One male and one female were administered RHa-5 (BHALys [Lys]2[Lys]2[Lys]8[Lys]16[Lys]32[(α-NH-6N-TDA-Remdesivir)32(ε-NH-COPEG2000)32] 20% Remdesivir loading w/w) (test item) intravenously; and one male and one female were administered RHa-5 subcutaneously. Blood samples were taken over a period of 7 days. A minimum washout period of 14 days took place between the last blood sampling point of the PK Phase 1 and the start of PK Phase 2. • PK Phase 2: Six animals (mammals) were studied. One male and one female were administered RHa-15 (BHALys[Lys]2[Lys]4[Lys]8[Lys]16[Lys]32[(α-NH-3′ O-TDA-Remdesivir)32(ε-NH-COPEG2000)32] 18.63% Remdesivir loading w/w) (test item) intravenously; one male and one female were administered RHa-15 subcutaneously; and one male and one female were administered RDV (reference item). Blood samples were taken over a period of 7 days.
Formulation procedure: Test items RHa-5 and RHa-15 were reconstituted in Required volume of Water for injection (WFI), until a complete solution was obtained. The required volume of WFI was slowly added to RDV formulation (a lyophilate of 3.2% w/w RDV, 96.8% and sodium sulfobutylether-β-cyclodextrin adjusted to pH 3.5 with HCl) and shaken vigorously for 30 seconds. The solution was left for 20 minutes to ensure complete dissolution.
Administration: The clinical Remdesivir loading dose in humans is 200 mg. […] Allometric conversion of the dose from humans to small mammals results in an equivalent test dose of 6.17 mg/kg Remdesivir. Test item was administered as follows:
PK Phase 1: Two animal groups (A and B) of one male and one female each were administered test item RHa-5 at a Remdesivir equivalent dose of 6.17 mg/kg. Group A were administered the test item as a slow (30 seconds) intravenous bolus; and Group B were administered the test item over 30 seconds using the subcutaneous (SC) route into the back of the animal.
PK Phase 2: Three animal groups (C, D and E) of one male and one female each were included in this study phase. Groups C and D were administered test item RHa-15 at a Remdesivir equivalent dose of 6.17 mg/kg using the IV and SC routes, respectively. Group E were administered 6.17 mg/kg of RDV intravenously. IV administrations were done as a slow (30 seconds) bolus. SC administrations were done over 30 seconds.
Sampling schedule: Blood samples for PK analysis were collected as follows: • Day 1: pre-dose and at 15 min, 30 min, 1 h, 2 h, 4 h, 6 h, and 12 h after administration. • Days 2 to 8: 24, 48, 72, and 168 h after administration.
A blood volume of 2 mL was collected at each time point from the jugular vein with a 20-21G needle into a lithium heparin tube, and transferred into a tube containing 200 μL 0.15 M citric acid. Immediately following blood collection, the blood samples were mixed gently and kept on crushed ice until centrifugation at 1500 G for 10 min at 4° C. within 30 minutes of collection. Each plasma sample was stored frozen (˜80±10° C.).
The quantification range was 0.6 to 14400 ng/mL for Remdesivir and 0.6 to 14400 ng/mL for G441524.
Non-compartmental pharmacokinetic analysis was adopted to obtain the pharmacokinetic parameters from the blood concentration profiles.
The maximum concentration, Cmax, and time of maximum concentration, Tmax, were determined as the maximum measured concentration and its associated time. The area under the plasma concentration curve from 0 hours to the time of the last measurable concentration, AUC0-last, was calculated using linear trapezoidal estimation. […]

Substance: BHALys[Lys]2[Lys]4[Lys]8[Lys]16[Lys]32[(α-NH-6N-TDA-Remdesivir)32(ε-NH-COPEG2000)32] [RHa-5]
- Release profile for plasma Remdesivir (IV and SC): excellent sustained release profile
- C0, plasma GS-441524 (IV, female (4F)): 2 ng/mL
- C0, plasma Remdesivir (IV, female (4F)): 4648 ng/mL
- F AUC(0-inf), plasma GS-441524 (IV, female (4F)): 0.8 x-fold
- F AUC(0-inf), plasma Remdesivir (IV, female (4F)): 605.7 x-fold
- F AUC(0-last), plasma GS-441524 (IV, female (4F)): 0.8 x-fold
- F AUC(0-last), plasma Remdesivir (IV, female (4F)): 667.2 x-fold
- Clast, plasma GS-441524 (IV, female (4F; RDV 6F)): 3.7 ng/mL
- Clast, plasma Remdesivir (IV, female (4F; RDV 6F)): 22.0 ng/mL
- t1/2last, plasma GS-441524 (IV, female (4F; RDV 6F)): 39.6 h
- t1/2last, plasma Remdesivir (IV, female (4F; RDV 6F)): 19.2 h
- tlast, plasma GS-441524 (IV, female (4F; RDV 6F)): 168 h
- tlast, plasma Remdesivir (IV, female (4F; RDV 6F)): 168 h
- C0, plasma GS-441524 (IV, male (1M)): 2 ng/mL
- C0, plasma Remdesivir (IV, male (1M)): 5701 ng/mL
- F AUC(0-inf), plasma GS-441524 (IV, male (1M)): 0.9 x-fold
- F AUC(0-inf), plasma Remdesivir (IV, male (1M)): 437.4 x-fold
- F AUC(0-last), plasma GS-441524 (IV, male (1M)): 0.8 x-fold
- F AUC(0-last), plasma Remdesivir (IV, male (1M)): 438.1 x-fold
- Clast, plasma GS-441524 (IV, male (1M; RDV 3M)): 3.1 ng/mL
- Clast, plasma Remdesivir (IV, male (1M; RDV 3M)): 98.7 ng/mL
- t1/2last, plasma GS-441524 (IV, male (1M; RDV 3M)): 36.6 h
- t1/2last, plasma Remdesivir (IV, male (1M; RDV 3M)): 29.5 h
- tlast, plasma GS-441524 (IV, male (1M; RDV 3M)): 168 h
- tlast, plasma Remdesivir (IV, male (1M; RDV 3M)): 168 h
- C0, plasma GS-441524 (IV, mean of male and female): 2 ng/mL
- C0, plasma Remdesivir (IV, mean of male and female): 5175 ng/mL
- Clast, plasma GS-441524 (IV, mean of male and female): 3 ng/mL
- Clast, plasma Remdesivir (IV, mean of male and female): 60 ng/mL
- t1/2last, plasma GS-441524 (IV, mean of male and female): 38.1 h
- t1/2last, plasma Remdesivir (IV, mean of male and female): 24.3 h
- tlast, plasma GS-441524 (IV, mean of male and female): 168 h
- tlast, plasma Remdesivir (IV, mean of male and female): 168 h
- F AUC(0-inf), plasma GS-441524 (IV, mean): 0.8 x-fold
- F AUC(0-inf), plasma Remdesivir (IV, mean): 521.6 x-fold
- F AUC(0-last), plasma GS-441524 (IV, mean): 1 x-fold
- F AUC(0-last), plasma Remdesivir (IV, mean): 553 x-fold
- Clast, plasma GS-441524 (SC, female (5F)): 6.5 ng/mL
- Clast, plasma Remdesivir (SC, female (5F)): 21.1 ng/mL
- tlast, plasma GS-441524 (SC, female (5F)): 168 h
- tlast, plasma Remdesivir (SC, female (5F)): 168 h
- F AUC(0-last), plasma GS-441524 (SC, female (5F)): 0.7 x-fold
- F AUC(0-last), plasma Remdesivir (SC, female (5F)): 113.8 x-fold
- Clast, plasma GS-441524 (SC, male (2M)): 8.8 ng/mL
- Clast, plasma Remdesivir (SC, male (2M)): 34.4 ng/mL
- t1/2last, plasma GS-441524 (SC, male (2M)): 61.9 h
- t1/2last, plasma Remdesivir (SC, male (2M)): 28.9 h
- tlast, plasma GS-441524 (SC, male (2M)): 168 h
- tlast, plasma Remdesivir (SC, male (2M)): 168 h
- F AUC(0-inf), plasma GS-441524 (SC, male (2M)): 1.1 x-fold
- F AUC(0-inf), plasma Remdesivir (SC, male (2M)): 146.8 x-fold
- F AUC(0-last), plasma GS-441524 (SC, male (2M)): 1.0 x-fold
- F AUC(0-last), plasma Remdesivir (SC, male (2M)): 146.9 x-fold
- Clast, plasma GS-441524 (SC, mean): 7.7 ng/mL
- Clast, plasma Remdesivir (SC, mean): 28 ng/mL
- t1/2last, plasma GS-441524 (SC, mean): 61.9 h
- t1/2last, plasma Remdesivir (SC, mean): 28.9 h
- tlast, plasma GS-441524 (SC, mean): 168 h
- tlast, plasma Remdesivir (SC, mean): 168 h
- F AUC(0-inf), plasma GS-441524 (SC, mean): 1.1 x-fold
- F AUC(0-inf), plasma Remdesivir (SC, mean): 147 x-fold
- F AUC(0-last), plasma GS-441524 (SC, mean): 1 x-fold
- F AUC(0-last), plasma Remdesivir (SC, mean): 130 x-fold
- Plasma Remdesivir t1/2 and AUC compared to RDV delivered IV (delivered IV or SC): substantially extended plasma Remdesivir t1/2 and increased AUC
